Publication PMC10942602

What was measured:
GFP-Nrxn3α(25b+) (rat) [1] = molecular target: GFP-Nrxn3α(25b+) (rat)
GFP-Nrxn3α(25b+) (rat) [2] = test: immunostaining of cells or tissue; co-culture (2 days) of HEK293 cells secreting myc-tagged C1ql2 or C1ql2.K262E with primary hippocampal neurons transfected with GFP-Nrxn3α(25b+); fixed, stained for myc and GFP; area of the masked HEK293 cell covered by GFP-Nrxn3α(25b+)-positive neuronal profiles; 25 cells per condition and experiment, N=3

Chain of 6xHis-myc-tagged C1ql2 (Q8CFR0 22-287): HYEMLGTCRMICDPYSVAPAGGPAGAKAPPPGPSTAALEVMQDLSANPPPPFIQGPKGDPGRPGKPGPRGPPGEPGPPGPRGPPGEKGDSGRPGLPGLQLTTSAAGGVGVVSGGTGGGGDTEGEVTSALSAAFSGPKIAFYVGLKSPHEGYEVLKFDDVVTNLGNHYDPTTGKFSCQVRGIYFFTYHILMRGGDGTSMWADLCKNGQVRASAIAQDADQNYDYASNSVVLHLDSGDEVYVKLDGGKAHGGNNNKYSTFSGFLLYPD
Chain of GFP-Nrxn3α(25b+) (rat) (Q07310 28-1578): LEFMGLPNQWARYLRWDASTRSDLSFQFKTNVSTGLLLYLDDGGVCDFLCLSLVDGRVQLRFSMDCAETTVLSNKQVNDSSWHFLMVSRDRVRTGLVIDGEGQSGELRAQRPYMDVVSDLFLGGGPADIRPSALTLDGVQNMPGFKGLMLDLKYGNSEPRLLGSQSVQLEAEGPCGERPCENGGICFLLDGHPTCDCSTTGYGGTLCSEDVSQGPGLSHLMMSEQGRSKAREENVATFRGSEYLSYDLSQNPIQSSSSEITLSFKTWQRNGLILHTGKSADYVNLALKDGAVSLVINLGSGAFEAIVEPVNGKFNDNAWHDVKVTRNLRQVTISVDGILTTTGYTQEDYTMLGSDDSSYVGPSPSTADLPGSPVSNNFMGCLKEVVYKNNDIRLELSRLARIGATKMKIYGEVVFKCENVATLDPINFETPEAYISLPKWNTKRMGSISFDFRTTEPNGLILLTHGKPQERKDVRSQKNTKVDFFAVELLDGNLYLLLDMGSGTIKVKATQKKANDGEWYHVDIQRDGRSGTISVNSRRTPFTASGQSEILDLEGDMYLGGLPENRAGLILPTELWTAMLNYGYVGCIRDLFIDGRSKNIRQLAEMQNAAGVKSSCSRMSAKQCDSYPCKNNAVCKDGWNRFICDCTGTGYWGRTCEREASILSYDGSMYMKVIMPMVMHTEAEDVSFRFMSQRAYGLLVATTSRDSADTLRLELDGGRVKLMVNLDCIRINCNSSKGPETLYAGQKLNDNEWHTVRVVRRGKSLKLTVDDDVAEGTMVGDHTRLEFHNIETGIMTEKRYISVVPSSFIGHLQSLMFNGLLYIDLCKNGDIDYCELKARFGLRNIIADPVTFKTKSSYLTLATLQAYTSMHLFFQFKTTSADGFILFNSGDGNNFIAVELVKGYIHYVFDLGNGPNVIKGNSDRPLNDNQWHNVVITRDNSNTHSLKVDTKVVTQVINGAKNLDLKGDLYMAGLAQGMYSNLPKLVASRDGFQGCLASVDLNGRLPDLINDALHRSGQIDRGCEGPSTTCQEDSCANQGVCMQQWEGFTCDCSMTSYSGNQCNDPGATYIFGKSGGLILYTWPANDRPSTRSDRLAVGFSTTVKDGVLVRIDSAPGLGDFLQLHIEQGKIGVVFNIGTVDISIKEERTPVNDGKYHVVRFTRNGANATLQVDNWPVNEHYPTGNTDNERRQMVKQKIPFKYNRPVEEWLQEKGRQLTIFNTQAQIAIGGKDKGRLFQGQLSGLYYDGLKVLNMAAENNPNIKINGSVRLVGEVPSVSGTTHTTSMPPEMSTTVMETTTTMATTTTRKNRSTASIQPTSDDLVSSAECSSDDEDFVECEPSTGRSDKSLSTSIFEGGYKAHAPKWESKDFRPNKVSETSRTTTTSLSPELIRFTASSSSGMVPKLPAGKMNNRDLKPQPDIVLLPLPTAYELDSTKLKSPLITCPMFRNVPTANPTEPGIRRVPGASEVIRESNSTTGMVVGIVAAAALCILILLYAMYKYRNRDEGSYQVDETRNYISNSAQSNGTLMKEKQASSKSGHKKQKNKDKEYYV

| vGlut1 accumulation in GFP-Nrxn3α(25b+)-expressing neurons contacting HEK293 cells expressing C1ql2.K262E (area of the HEK293 cell covered by vGlut1) (GFP-Nrxn3α(25b+) (rat) [1]) | Substance | surface area of HEK293 cells covered by GFP-Nrxn3α(25b+)-positive neuronal profiles (GFP-Nrxn3α(25b+) (rat) [2]) |
| --- | --- | --- |
| 16.9 | 6xHis-myc-tagged C1ql2.K262E (from UniProt Q8CFR0 22-287) (natural protein) |  |
|  | 6xHis-myc-tagged C1ql2 (from UniProt Q8CFR0 22-287) (natural protein) | 40 |
